Data published in patent publication US20240181006A1, “POLYPEPTIDES BINDING ADAMTS5, MMP13 AND AGGRECAN” (Merck Patent GmbH, priority 2017, published 2024).

Assays:
[1] = test system: bovine cartilage explant chips; experiment: bovine cartilage explant assay, IL-1α induced GAG release (02F03); type: cell-based
Experimental: In addition, ISVD 02F03 was further evaluated for its ability to block cartilage degradation in an ex vivo assay, in which the substrate is presented in a condition closer to the physiological condition compared to biochemical assays. In brief, bovine cartilage explant chips (diameter 4 mm) were prepared freshly from cow knee joints and incubated in 96-well plates in presence of IL-1α to induce cartilage degradation. As a measure of cartilage/Aggrecan degradation, the release of glycosaminoglycan (GAG) was detected in the supernatant after 5 days of incubation (37° C., 7.5% C02) via the metachromatic dye 1,9 dimethylmethylene blue ([…] at 633 nm). Chondroitin sulphate was included as assay standard. Efficacy was defined by means of the IL-1α-induced controls without compound (0%) and in presence of MSC2310852A (100% effect).

mouse ADAMTS5 = molecular target: T1, mouse ADAMTS5 (Mus musculus, UniProt Q9R001); experiment: SPR-based off-rate analysis, mouse ADAMTS5; type: binding; conditions: Experiment 2
T1 sequence (Q9R001 262-930): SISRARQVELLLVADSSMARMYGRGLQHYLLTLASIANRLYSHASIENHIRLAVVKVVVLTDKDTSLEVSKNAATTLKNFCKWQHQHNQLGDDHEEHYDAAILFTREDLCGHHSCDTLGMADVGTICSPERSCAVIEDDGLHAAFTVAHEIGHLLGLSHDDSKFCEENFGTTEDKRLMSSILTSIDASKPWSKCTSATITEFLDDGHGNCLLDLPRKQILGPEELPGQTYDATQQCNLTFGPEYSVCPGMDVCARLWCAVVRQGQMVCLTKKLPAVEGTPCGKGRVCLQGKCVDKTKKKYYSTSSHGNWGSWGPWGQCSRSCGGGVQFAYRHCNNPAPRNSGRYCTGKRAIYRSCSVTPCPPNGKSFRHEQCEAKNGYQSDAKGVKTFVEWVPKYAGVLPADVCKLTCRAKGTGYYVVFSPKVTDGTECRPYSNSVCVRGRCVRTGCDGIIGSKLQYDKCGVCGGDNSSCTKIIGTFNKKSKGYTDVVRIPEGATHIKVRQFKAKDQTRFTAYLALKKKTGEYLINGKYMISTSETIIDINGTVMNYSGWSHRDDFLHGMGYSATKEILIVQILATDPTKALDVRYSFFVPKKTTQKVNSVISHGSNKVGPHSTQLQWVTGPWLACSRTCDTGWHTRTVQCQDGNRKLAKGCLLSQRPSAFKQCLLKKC
Experimental: (§1) Species cross-reactivity was initially evaluated via SPR-based off-rate analysis on a Biacore T100 instrument. Polypeptides were tested for binding to human, cynomolgus monkey (“cyno”), guinea pig, mouse, and bovine ADAMTS5. To this end, recombinant ADAMTS5 was immobilized onto a CM5 chip via amine coupling using EDC and NHS. Purified ISVD 02F03 was injected for 2 minutes at a concentration of 100 nM and allowed to dissociate for 15 min at a flow rate of 45 μl/min. Off-rate for each individual ADAMTS5 was determined by fitting a 1:1 interaction model (Langmuir model) onto the individual dissociation curves using the BIA Evaluation software. As a reference, off-rates on human ADAMTS5 were determined in each experiment.

human ADAMTS5 [2] = molecular target: T2, human ADAMTS5 (Homo sapiens, UniProt Q9UNA0); experiment: SPR-based off-rate analysis, human ADAMTS5; type: binding
T2 sequence (Q9UNA0 262-930): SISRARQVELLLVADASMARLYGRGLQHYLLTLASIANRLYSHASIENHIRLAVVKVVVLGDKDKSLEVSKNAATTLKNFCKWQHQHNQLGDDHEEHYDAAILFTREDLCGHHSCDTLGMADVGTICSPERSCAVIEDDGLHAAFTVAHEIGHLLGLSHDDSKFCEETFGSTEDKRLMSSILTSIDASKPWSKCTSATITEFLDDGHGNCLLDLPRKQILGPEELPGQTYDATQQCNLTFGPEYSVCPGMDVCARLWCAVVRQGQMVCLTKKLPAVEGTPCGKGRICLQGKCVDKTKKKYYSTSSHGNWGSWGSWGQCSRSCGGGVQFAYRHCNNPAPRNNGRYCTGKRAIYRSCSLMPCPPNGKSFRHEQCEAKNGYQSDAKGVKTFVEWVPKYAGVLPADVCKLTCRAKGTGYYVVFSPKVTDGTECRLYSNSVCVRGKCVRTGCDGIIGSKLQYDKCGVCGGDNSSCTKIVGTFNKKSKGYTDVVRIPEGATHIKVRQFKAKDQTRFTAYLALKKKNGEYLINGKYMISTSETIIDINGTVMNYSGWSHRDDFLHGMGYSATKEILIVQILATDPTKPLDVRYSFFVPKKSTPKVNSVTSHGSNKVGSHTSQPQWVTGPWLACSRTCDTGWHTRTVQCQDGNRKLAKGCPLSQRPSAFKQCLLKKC
Experimental: as §1

bovine ADAMTS5 = experiment: SPR-based off-rate analysis, bovine ADAMTS5; type: binding; conditions: Experiment 3
Experimental: as §1

human ADAMTS5 [3] = molecular target: T2, human ADAMTS5; experiment: AlphaLISA based human ADAMTS5 assay; type: biochemical
Experimental: In short, a periplasmic extract of ISVD 02F03 was tested for binding to recombinant human ADAMTS5 by binding ELISA. Next, it was confirmed that ISVD 02F03 was able to prevent ADAMTS5-mediated cleavage of Aggrecan in a FRET-based human ADAMTS5 enzymatic assay. Next to the FRET-based assay, an AlphaLISA (Perkin Elmer, Waltham, MA, US) based human ADAMTS5 assay with a biotinylated 43-mer Aggrecan oligopeptide as substrate was performed. Upon ADAMTS5 cleavage of this substrate, a biotinylated ARGSV neo-epitope product is released and can be detected by streptavidin-AlphaScreen donor beads and an α-neo-epitope (“ARGSV”) antibody captured on anti-mouse IgG-coated AlphaLISA acceptor beads, resulting in the generation of a luminescence AlphaScreen signal upon laser excitation. To determine the ability of ISVD 02F03 to prevent ADAMTS5-mediated cleavage of the substrate, the decrease in signal was analysed in function of ISVD 02F03 concentration and IC50 values were calculated.

human MMP14 = human MMP14 (Homo sapiens, UniProt P50281); experiment: FRET-based human MMP14 assay (selectivity of 02F03); type: biochemical; conditions: data not shown
Experimental: To confirm the selectivity of ISVD 02F03 for ADAMTS5, inhibition of the enzymatic activity of MMP1, MMP14 and ADAMTS4 was evaluated via FRET-based assays and a human ADAMTS4 AlphaLISA, with the respective enzymes.
Activated human MMP1 or MMP14 was incubated for 30 minutes at room temperature with 10 μl of dilution series of ISVD 02F03. After incubation, 20 μl of respectively 5 μM or 2.5 μM fluorogenic peptide substrate (Mca-PLGL-Dpa-AR-NH2 Fluorogenic MMP Substrate (R&D Systems cat #ES001)) was added. The ability of ISVD 02F03 to prevent MMP1- and MMP14-mediated cleavage was monitored every minute for 2 hours at 37° C. on a Tecan Infinite M1000 plate reader.

- SPR based off-rate, kd, Mouse ADAMTS-5 (mouse ADAMTS5): 0.00029 s⁻¹
- SPR based off-rate, kd, Human ADAMTS-5 (human ADAMTS5 [2]; Experiment 1): 3.3e-05 s⁻¹
- SPR based off-rate, kd, Human ADAMTS-5 (human ADAMTS5 [2]; Experiment 2): 6.5e-05 s⁻¹
- SPR based off-rate, kd, Human ADAMTS-5 (human ADAMTS5 [2]; Experiment 3): 9.7e-05 s⁻¹
- SPR based off-rate, kd, Bovine ADAMTS-5 (bovine ADAMTS5): 4.3e-05 s⁻¹
- Human AlphaLISA % inhibition (human ADAMTS5 [3]): 100%
- inhibition of MMP14 activity (human MMP14): did not show any inhibition
B1: ISVD 02F03: immunoglobulin single variable domain which specifically binds ADAMTS5 (protein)
VHH: EVQLVESGGGVVQPGGSLRLSCAASGRTVSSYAMGWFRQAPGKEREFVAGISRSAERTYYVDSLKGRFTISRDNSKNTVYLQMNSLRPEDTALYYCAADLDPNRIFSREEYAYWGQGTLVTVSS
modifications: Description of Artificial Sequence: Synthetic anti-ADAMTS5 immunoglobulin single variable domain (ISVD)
- IC50 ([1]; IL-1α, GAG release after 5 days): 14 nM
- IC50 times lower than mAb 12F4 in bovine explant assay ([1]; versus bivalent mAb 12F4): about 50 times
